Substitutions are numbered along the chain they refer to.

B1: M0708 (Fab, V domains shown)
VH: QSVEESGGRLVTPGTPLTLTCTVSGFSLSNYAMSWVRQAPGKGLEYIGIVSSGGTTYYASWAKGRFTISKTSTTVDLKITSPTTEDTATYFCAKDLYYGPTTYSAFNLWGQGTLVTVSS
VL: SELVLTQPQSVSGSLGQTVSISCKRARNNIEDYYVHWYQQHPGRSPTIVIHKDDQRPSGVPDRFSGSIDSTSNSASLTITGLLAEDEADYFCQSFDNNANPVFGGGTQLTVTG
B2: M0710 (Fab, V domains shown)
VH: B1 VH with E4K
VL: B1 VL with N28D, H41Y, R44K, S45T, H51Y, P101V
B3: M0705 (Fab, V domains shown)
VH: QQQLVESGGRLVTPGTPLTLTCTASGIDLNSNAMSWVRQGPGKGLEWIGDIWSGGYTDYASWAKGRFTISKTSTTVDLKMTSLTAADTATYFCARDRLAGDGVVDYDLWGQGTLVTVSS
VL: ELDMTQTPASVEVAVGGTVTIKCQASQNIYSNLAWYQQKPGQRPKLLIYGASTLASGVPSRFKGSGSGTEYTLTINGVQAADAATYYCQQGFSSSNVDNVFGGGTEVVVKR
B4: M0702 (Fab, V domains shown)
VH: QEQLEESGGGLVTPGTPLTLTCTASGFSLSSYAMIWVRQAPGKGLEWIGTINDGGTAFYANWVKGRFTISRTSTTVDLKMTSPTTEDTATYFCARAYGSNGDVYWGYVNLWGQGTLVTVSS
VL: ELVMTQTPASVSEPVGGTVTIKCQASQSIGSNLAWYQQKPGQPPKLLIYAAANLASGVSSRFKGSRSGTEYTLTISGVQAADAATYYCQQGYSSSNVANVFGGGTELEILR
B5: M0707 (Fab, V domains shown)
VH: QQQLEESGGGLVTPGTPLTLTCTVSGIDLSSYAMGWVRQAPGKGLEWIGTINDGGSAFYASWVKGRFTISRTSTTVDLKITSPTAEDTATYFCAKTYGTNGDVYWGYFNLWGQGTLVTVSS
VL: ELVMTQTPASVSEPVGGTVTIKCQASQSIGSNLAWYQQKPGQPPKLLIYYESILASGVPSRFSGSGSGTEYTLTISGAQADDAATYYCQQGYSSSNILNAFGGGTEVVVKR
B6: M0738 (VHH)
VHH: EVQLVESGGGLVEAGVSLRLSCAASGRTSENFAMGWFRQAPGNEREFVAAITRNHRTFYKESVKDRFTISRDDAKNTVYLEMNNLVPDDTAVYTCAAKFDPYASASSYYTGYYYWGQGTQVTVSS
notes: Llama-derived VHH
B7: M0751 (VHH)
VHH: EVQLVESGGGLVQPGGSLRLSCAASGFSFRLYTMSWVRQAPGKGLEWVSSISSGGGVVTTYADSAKGRFTISRDNDKNTLTLQMNSLKPEDTAVYYCAQGERRGQGTQVTVSS
notes: Llama-derived VHH
B8: M0866 scFv (scFv)
scFv: QSVKESGGRLVTPGTPLTLTCTASGFTISSSAISWVRQAPGKGLEYIGIIRSGGTTDYASWAKGRFAISKTSTTVDLKITSPTTEDTATYFCARDPPYITSTYFDLWGQGTLVTVSSGGGGSGGGGSGGGGSGGGGASELVLTQPQSVSGSLGQTVSISCKRARDSVESYDVHWYQQHPGKTPTIVIYKDDQRPSGVPDRFSGSIDSTSNSASLTITGLLAEDEADYFCQSFDGDAVVFGGGTQLTVTG
notes: Rabbit scFv identified by phage display
B9: M0750 (VHH)
VHH: MEVQLVESGGGLVQPGGSLRLSCAASGFTFSRYTMSWVRQAPGEGLEWVSSIGSGGGPTTYANSVKGRFTVSRDNAKNTLWLQMNNLKPEDTALYYCQGGGNRGQGAQVTVSS
notes: Llama-derived VHH
B10: M0863 scFv (scFv)
scFv: PEQLMESGGGLVTPGGVLTLTCTASGFSFSSYGVNWVRQAPGKGLEWIGFIFGDGTTYYANWAKGRFTISKTSTTVDLKMTSPTTEDTATYFCARDGYGGYDYIINLWGQGTLVTVSSGGGGSGGGGSGGGGSGGGGASAQVLTQTPASVSAAVGGTVSISCQSSQSVVNNNWLAWYQQKPGQPPKLLIYKASTLESGVPSRFKGSGSGTQFTLTISGVQADDAATYYCQGAYSGNIYYNAFGGGTEVVVK
notes: as for B8
B11: M0746 (VHH)
VHH: EVQLVESGGGLVQAGGSLRLSCAASGRTFSNNAMGWFRQGPDQEREFVAAISRSGGGSGGAPLYADSVKGRFTISRDNAKNTMSLSMNSLSPEDTAVYYCAARSLYKVAGSDDLSDYAYWGQGTQVTVSS
notes: Llama-derived VHH
B12: M0734 (VHH)
VHH: EVQLVESGGGLVQAGGSLRVSCAASGLTFSNYAMGWFQQAPGKEREFVAGISWSGVSTYYADFVKGRFTISRDNAKNTVYLQMNSLKPEDTAVYYCAADNRRYSRGTSISTWRSDYDYWGQGTQVTVSS
notes: Llama-derived VHH
B13: M0865 scFv (scFv)
scFv: PAALMESGGRLVTPGTPLTLTCTVSGIDLSTFAMTWVRQAPGKGLEWLGIINTGGSAYYTSWAKGRFTISRTSTTVDLKITSPTTEDTATYFCARGDWSSATDLWGQGTLVTISSGGGGSGGGGSGGGGSGGGGASDPDMTQTPSSVSAAVGGTVTINCQASQSVYDNKVLAWYRQKPGQPPKLLIYKASTLASGVPSRFKGRGSGTQFTLTISGVQADDAATYYCLGEFSCSSADCHAFGGGTELEIL
notes: as for B8
B14: M0864 scFv (scFv)
scFv: QSVKESGGGLVTPGTPLTLTCTVSGFSLSTYAISWVRQAPGKGLEWIGFIDTVDSAYYASWAKGRFTISKTSSTTVDLKMTSPTTEDTATYFCAKLRYGDYGDYTLWGQGTLVTVSSGGGGSGGGGSGGGGSGGGGASELVMTQTPSPVSGAVGGTVTIKCQASQNIYSYLAWYQQKPGQPPKLLIYKASTLASGVPSRVKGSGSGTEYTLTISGVQAADAATYYCQCTYYDSNTFGGGTEVVVK
notes: as for B8
B15: M0735 (VHH)
VHH: EVQLVESGGGLVQAGGSLRLSCAASGLTFRRYTMGWFRQAPGKEREFVAAIVSSDSTNYADSVKGRFTISRDNAKNTVYLEMNSLKPDDTCVYYCAARNSLSLYVSNLGSRYDYWGQGTQVTVSS
notes: Llama-derived VHH
B16: M0744 (VHH)
VHH: EVQLVESGGGLVQPGGSLRLSCAASGSIFSINDMDWYRQAPGKQRELVAAITRGGSTNYADSVKGRFTISRDNAKNTVYLQMNSLKPEDTAVYYCNAEVSTETTGWRTWRDYWGQGTQVTVSS
notes: Llama-derived VHH
B17: M0737 (VHH)
VHH: EVQLVESGGGLVQRGDSRRLSCAASGRPFSSFAMGWFRQAPGKEREFVAGISRSAGNTDYSDSVKGRFTISRDNAKNTVYLELNNLTPEDTAVYYCAAQIAIGTGSVFQSNTQYMYWGQGIQVTVSS
notes: Llama-derived VHH
B18: M0736 (VHH)
VHH: EVQLVESGGGLVQAGGSLRLSCTVSGRTSSAFAMGWFRQAPGKEREFVAAINLTGGTTNYAESVKGRFTISRDNAKNTGYLGMSSLKPEDTAVYYCAGRNRWSEGREVAPSSYYYWGQGTQVTVSS
notes: Llama-derived VHH
B19: M0862 scFv (scFv)
scFv: PEQLMESGGGLVTPGGVLTLTCTASGFSFSSYGVNWVRQAPGKGLEWIGFIFGDGTTYYANWAKGRFTISKTSTTVDLKMTSPTTEDTATYFCARDGYGGYDYIINLWGQGTLVTVSSGGGGSGGGGSGGGGSGGGGASAQVLTQTPASVSAAVGGTVSISCQSSQSVVNNNWLAWYQQKPGQPPKLLIYKASTLESGVPSRFKGSGSGTQFTLTISGVQADDAATYYCLGEFSCSSADCHAFGGGTELEIL
notes: as for B8
B20: M0752 (VHH)
VHH: EVQLVESGGGLVQPGGSLRLSCAASGFTFSNYGMSWVRQAPGKGLEWVSSIGSGGRITTYLDSVKGRFTISRDNAKNTLYLQMNSLKSEDTAVYYCESGGYRGQGTQVTVSS
notes: Llama-derived VHH
B21: M0748 (VHH)
VHH: EVQLVESGGGAVQAGGSLRLSCTVSGRPFTKYAWGWFRQPPEKEREFVATSTWDVGSTYYADSAKGRFTISRDNANNIIDLQMNSLKPEDTAVYYCAASNTYSSDITYYAKPMAFNFWGQGTQVTVSS
notes: Llama-derived VHH
B22: M0749 (VHH)
VHH: EVQLVESGGGSVQPGGSLRLSCAASGFTFSRSTMSWVRQAPGKEIEWVSSVSGSGGVTTYADSVKGRFTISRDNAKNTLYLQMSSLKPEDTAVYYCGNSNARGQGTQVTVSS
notes: Llama-derived VHH
B23: M0740 (VHH)
VHH: EVQLVESGGGLVQPGGSLRLSCLASGFPFSMYTMNWVRQAPGKGLEWVSAISSGGAVTTYADSVKGRFTISRDNAKNTLYLQMSSLKPEDTAVYYCESSNNRGQGTQVTVSS
notes: Llama-derived VHH
B24: M0745 (VHH)
VHH: EVQLVESGGGLVQAGGSLRLSCAVSGRRVSIYGMGWYRLAPGKQREMVASITSGGITTYADSVKGRFSISRDNAKNTVYLQMNSLKPEDTAVYYCNYHDYRVQGESWGQGTQVTVSS
notes: Llama-derived VHH
B25: M0741 (VHH)
VHH: EVQLVESGGGAVQAGGSQRLSCTVSGRPFTKYAMGWFRQPPEKEREFVATSTWEGSTYYADSVKGRFTISRDNANNIIDLQMNTLKPEDTAVYFCAASNTYNADTTYYAKSTAFNFWGQGTQVTVSS
notes: Llama-derived VHH

For the first test, the target named is T1, HLA-A2/MAGE-A4 complex, recombinant (HLA-A*02:01 extracellular domain, human b2m, MAGE-A4 peptide 230-239 …) (human, UniProt P04439 25-299 at identity 0.94); P61769 21-119).
T1 construct: also called MAGE-A4 pMHC; MAGE-A4/HLA-A2 complex
Briefly: direct ELISA, plate coated with HLA-A2/MAGE-A4 complex, serial dilution of the antibody. As to the method: All available hits were evaluated for their ability to bind MAGE-A4/HLA-A2 complex and a control peptide/HLA-A2 complex in a direct binding ELISA assay. […] Briefly, 96 well ELISA plates were coated with purified human MAGE-A4/HLA-A2 complex or control HLA-A2 complex. Serial dilutions of antibody molecules were added to the plate and detected by an anti-kappa light chain-HRP (Invitrogen) or a purified rabbit anti-VHH (QVQ) followed by goat anti-rabbit IgG(H+L) HRP (Southern Biotech). […] 5B.
As for B1, the binding result is listed as “binds”.
With B2, the binding result was “binds”.
Consider B3, for which the binding result is reported as “binds”.
The EC50 (read off the curve) is the concentration giving half of the maximal effect. As for B4, the “EC50 (read off the curve)” value is ~0.6 nM.
In the case of B5, the binding result is “binds”.

The next test deals with T1, HLA-A2/MAGE-A4 complex, recombinant …. The test can be described thus: phage display biopanning and screening.
In the case of B6, the binding result is reported as “binds”.
Take B7: the binding result is “binds”.
Take B8: the binding result is on record as “binds”.
For the molecule B9, the binding result is “binds”.
Turning to B10, the binding result is “binds”.
The same measure, in the same setting: for B11 the value was “binds”; for B12, “binds”; for B13, “binds”.
Still for that read-out and setting: for B14 the value was “binds”; for B15, “binds”; for B16, “binds”.
On the same count and under the same terms, for B17 the value was “binds”; for B18, “binds”; for B19, “binds”.
With B20, the binding result is on record as “binds”.
With B21, the binding result is reported as “binds”.
B22: the binding result is on record as “binds”.
As for B23, the binding result is on record as “binds”.
On the same count and under the same terms, the value for B24 was “binds”; that for B25 was “binds”.

Source of the values: patent US20240279344A1 (CDR LIFE, published 2024).
